{"source": "patent US20020146804", "molecules": {"B1": {"name": "cytochrome c-activated caspase-3 in S-100 extract of human embryonic kidney 293 cells (protein)", "chain": "SGISLDNSYKMDYPEMGLCIIINNKNFHKSTGMTSRSGTDVDAANLRETFRNLKYEVRNKNDLTREEIVELMRDVSKEDHSKRSSFVCVLLSHGEEGIIFGTNGPVDLKKITNFFRGDRCRSLTGKPKLFIIQACRGTELDCGIETDSGVDDDMACHKIPVEADFLYAYSTAPGYYSWRNSKDGSWFIQSLCAMLKQYADKLEFMHILTRVNRKVATEFESFSFDATFHAKKQIPCIVSMLTKELYFYH"}, "B2": {"name": "cytochrome c-activated caspase-6 in S-100 extract of human embryonic kidney 293 cells (protein)", "chain": "AFYKREMFDPAEKYKMDHRRRGIALIFNHERFFWHLTLPERRGTCADRDNLTRRFSDLGFEVKCFNDLKAEELLLKIHEVSTVSHADADCFVCVFLSHGEGNHIYAYDAKIEIQTLTGLFKGDKCHSLVGKPKIFIIQACRGNQHDVPVIPLDVVDNQTEKLDTNITEVDAASVYTLPAGADFLMCYSVAEGYYSHRETVNGSWYIQDLCEMLGKYGSSLEFTELLTLVNRKVSQRRVDFCKDPSAIGKKQVPCFASMLTKKLHFFPKSN"}, "B3": {"name": "cytochrome c-activated caspase-9 in S-100 extract of human embryonic kidney 293 cells (protein)", "chain": "MDEADRRLLRRCRLRLVEELQVDQLWDALLSRELFRPHMIEDIQRAGSGSRRDQARQLIIDLETRGSQALPLFISCLEDTGQDMLASFLRTNRQAAKLSKPTLENLTPVVLRPEIRKPEVLRPETPRPVDIGSGGFGDVGALESLRGNADLAYILSMEPCGHCLIINNVNFCRESGLRTRTGSNIDCEKLRRRFSSLHFMVEVKGDLTAKKMVLALLELAQQDHGALDCCVVVILSHGCQASHLQFPGAVYGTDGCPVSVEKIVNIFNGTSCPSLGGKPKLFFIQACGGEQKDHGFEVASTSPEDESPGSNPEPDATPFQEGLRTFDQLDAISSLPTPSDIFVSYSTFPGFVSWRDPKSGSWYVETLDDIFEQWAHSEDLQSLLLRVANAVSVKGIYKQMPGCFNFLRKKLFFKTS"}, "B4": {"name": "cytochrome c-activated caspase-7 in S-100 extract of human embryonic kidney 293 cells (protein)", "chain": "AKPDRSSFVPSLFSKKKKNVTMRSIKTTRDRVPTYQYNMNFEKLGKCIIINNKNFDKVTGMGVRNGTDKDAEALFKCFRSLGFDVIVYNDCSCAKMQDLLKKASEEDHTNAACFACILLSHGEENVIYGKDGVTPIKDLTAHFRGDRCKTLLEKPKLFFIQACRGTELDDGIQADSGPINDTDANPRYKIPVEADFLFAYSTVPGYYSWRSPGRGSWFVQALCSILEEHGKDLEIMQILTRVNDRVARHFESQSDDPHFHEKKQIPCVVSMLTKELYFSQ"}}}
{"target": "T1, mouse procaspase-14", "T1 chain": "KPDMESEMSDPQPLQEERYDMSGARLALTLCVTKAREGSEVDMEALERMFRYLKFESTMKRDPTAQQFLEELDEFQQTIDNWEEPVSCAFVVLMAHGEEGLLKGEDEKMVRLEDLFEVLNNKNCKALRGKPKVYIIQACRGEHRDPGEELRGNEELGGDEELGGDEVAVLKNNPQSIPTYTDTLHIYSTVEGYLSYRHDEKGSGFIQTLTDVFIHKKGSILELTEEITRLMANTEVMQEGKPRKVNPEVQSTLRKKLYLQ"}
{"molecule": "B1", "cleavage/activation of 35S labeled procaspase-14 in S-100 extracts activated by cytochrome c and dATP, SDS-PAGE and autoradiography": "no cleavage/activation of ^35S labeled procaspase-14 was observed in S-100 extracts activated by cytochrome c and dATP"}
{"molecule": "B2", "cleavage/activation of 35S labeled procaspase-14 in S-100 extracts activated by cytochrome c and dATP, SDS-PAGE and autoradiography": "no cleavage/activation of ^35S labeled procaspase-14 was observed in S-100 extracts activated by cytochrome c and dATP"}
{"molecule": "B3", "cleavage/activation of 35S labeled procaspase-14 in S-100 extracts activated by cytochrome c and dATP, SDS-PAGE and autoradiography": "no cleavage/activation of ^35S labeled procaspase-14 was observed in S-100 extracts activated by cytochrome c and dATP"}
{"molecule": "B4", "cleavage/activation of 35S labeled procaspase-14 in S-100 extracts activated by cytochrome c and dATP, SDS-PAGE and autoradiography": "no cleavage/activation of ^35S labeled procaspase-14 was observed in S-100 extracts activated by cytochrome c and dATP"}
{"test_system": "T2, mouse procaspase-14", "T2 sequence": "T1 chain"}
{"molecule": "purified Granzyme B", "processing (cleavage) of 35S labeled procaspase-14, SDS-PAGE and autoradiography": "a significant amount of processing was observed when procaspase-14 was incubated with Granzyme B, caspase-10 and caspase-8, but not with other caspases"}
{"molecule": "purified recombinant caspase-8", "processing (cleavage) of 35S labeled procaspase-14, SDS-PAGE and autoradiography": "a significant amount of processing was observed when procaspase-14 was incubated with Granzyme B, caspase-10 and caspase-8, but not with other caspases"}
{"molecule": "purified recombinant caspase-14", "processing (cleavage) of 35S labeled procaspase-14, SDS-PAGE and autoradiography": "Some processing was also observed with recombinant caspase-14 itself"}
{"molecule": "purified recombinant caspase-10", "processing (cleavage) of 35S labeled procaspase-14, SDS-PAGE and autoradiography": "a significant amount of processing was observed when procaspase-14 was incubated with Granzyme B, caspase-10 and caspase-8, but not with other caspases"}
